One molecule from patent US7745147 (VIRANATIVE, dated 2010) can be followed below.

A value given as a limit tells only on which side of the number the result lay.

In test [1] the target is T1, human interferon alpha 1 (human, UniProt P0DY56 24-189).
T1 construct: also called α1; IFN-α1
Briefly: immunoaffinity chromatography (Examples 1, 3, 4 and 5).

Test [2] deals with concentrated crude leukocyte interferon alpha. Briefly: capacity of immunoaffinity gel, 7 mg antibody/mL CNBr-activated Sepharose FF.
Test [3] has the same target. Briefly: immunoaffinity chromatography of crude leukocyte interferon alpha (Example 1).
For test [4], the target named is T2, human interferon alpha 14 (human, UniProt P01570 24-189).
T2 construct: One entry serves both the natural leukocyte protein and the bought recombinant protein; also called α14; IFN-α14
Briefly: immunoaffinity column loaded with crude leukocyte interferon alpha; RP-HPLC of eluate.
Experimental: The antibodies were all bound to CNBr-activated Sepharose gel. […] Impurities and unbound material were removed from the column by washing with buffer. Interferon alpha was eluted with citric-acid buffer, pH2. Unbound, flow-through fractions, and eluate fractions were analysed for interferon alpha using a specific ELISA. The eluate fraction was analysed for its complement of interferon alpha proteins using reversed-phase HPLC (RP-HPLC). Interferon alpha specific activity was determined using a cytopathic protective effect assay with MDBK cells. All samples were analysed twice. The experiments were repeated with a second batch of concentrated crude leukocyte interferon alpha.
Rather, the interferon alpha protein pattern is compared to assess whether all the expected peaks are present.

The target in test [5] is concentrated crude leukocyte interferon alpha. Briefly: pilot-scale immunoaffinity chromatography, crude interferon batch K-543, experiment P-429.
Test [6] shares this target. Briefly: immunoaffinity chromatography, antibody on CNBr-Sepharose; interferon alpha ELISA of fractions. Background: An ELISA detects its analyte on a solid surface through an enzyme-linked reagent.
The target is the same in test [7]. The test is described as follows: pilot-scale immunoaffinity chromatography, crude interferon from lab fermenter, experiment P-434.
Test [8] addresses T3, human interferon alpha 5 (human, UniProt P01569 24-189, limits assumed).
T3 construct: also called α5; IFN-α5
Briefly: 3-A3-2 immunoaffinity column, 10,000 IU load; Daudi cell anti-proliferative assay of fractions.

Test [9] concerns the target T4, human interferon alpha 16 (human, UniProt P05015 24-189).
T4 construct: also called α16; IFN-α16
The test is described as above.

Test [10] has as its target concentrated crude leukocyte interferon alpha. The test is described as follows: immunoaffinity chromatography, antibody on CNBr-Sepharose; interferon alpha ELISA of fractions; second row for this antibody.

B1: Monoclonal antibody 3-A3-2 (antibody, mouse IgG1, V domains shown)
VH: QVQLQESGTVLARPGASVKMSCKASGYSFTTYWMHWVKQRPGQGLEWIGVIYPGNGDTTYNQKFKDKAKLTAVTSANTAYMELSSLTNEDSAVYFCTRNYKYDYYTMDYWGQGTTVTVSS
VL: DIVLTQSPASLAVSLGQRATISCRASKSVSTSGHSYMHWYQQKPGQTPKLLIYLASNLESGVPARFSGSGSGTDFTLNIHPVEEEDAATYYCQHSGELPFTFGSGTKLEIK
notes: Murine IgG1/kappa from hybridoma 3-A3-2 (ECACC 05030201); also called monoclonal 3-A3-2; 3A32 Ab
Take B1: the binding result in test [1], in test [4], in test [8] and in test [9] was “binds” in each case. Besides, in [2], the interferon capacity is 22.5 MIU/ml gel. Also, the Flow-through (%) in test [3] is less than 5%; in test [6] it was 1%; in [10], 5%. In addition, the IFN-α eluate yield (%) is 73% in [5] and 70% in test [7]. In addition, the eluate (IU) in [6] came to 16.5 IU; in [10] it was 17 IU. For the same molecule, the recovery (%) was found to be 66% in test [6] and 61% in [10].
